Test results published in IntAct's records for PubMed 29039417.

B1: Protein PTHB1 (Homo sapiens), Q3SYG4 (parent)
chain: MSLFKARDWWSTILGDKEEFDQGCLCLANVDNSGNGQDKIIVGSFMGYLRIFSPHPAKTGDGAQAEDLLLEVDLRDPVLQVEVGKFVSGTEMLHLAVLHSRKLCVYSVSGTLGNVEHGNQCQMKLMYEHNLQRTACNMTYGSFGGVKGRDLICIQSMDGMLMVFEQESYAFGRFLPGFLLPGPLAYSSRTDSFLTVSSCQQVESYKYQVLAFATDADKRQETEQQKLGSGKRLVVDWTLNIGEQALDICIVSFNQSASSVFVLGERNFFCLKDNGQIRFMKKLDWSPSCFLPYCSVSEGTINTLIGNHNNMLHIYQDVTLKWATQLPHIPVAVRVGCLHDLKGVIVTLSDDGHLQCSYLGTDPSLFQAPNVQSRELNYDELDVEMKELQKIIKDVNKSQGVWPMTEREDDLNVSVVVSPNFDSVSQATDVEVGTDLVPSVTVKVTLQNRVILQKAKLSVYVQPPLELTCDQFTFEFMTPDLTRTVSFSVYLKRSYTPSELEGNAVVSYSRPTDRNPDGIPRVIQCKFRLPLKLICLPGQPSKTASHKITIDTNKSPVSLLSLFPGFASQSDDDQVNVMGFHFLGGARITVLASKTSQRYRIQSEQFEDLWLITNELILRLQEYFEKQGVKDFACSFSGSIPLQEYFELIDHHFELRINGEKLEELLSERAVQFRAIQRRLLARFKDKTPAPLQHLDTLLDGTYKQVIALADAVEENQGNLFQSFTRLKSATHLVILLIALWQKLSADQVAILEAAFLPLQEDTQELGWEETVDAAISHLLKTCLSKSSKEQALNLNSQLNIPKDTSQLKKHITLLCDRLSKGGRLCLSTDAAAPQTMVMPGGCTTIPESDLEERSVEQDSTELFTNHRHLTAETPRPEVSPLQGVSE
partner: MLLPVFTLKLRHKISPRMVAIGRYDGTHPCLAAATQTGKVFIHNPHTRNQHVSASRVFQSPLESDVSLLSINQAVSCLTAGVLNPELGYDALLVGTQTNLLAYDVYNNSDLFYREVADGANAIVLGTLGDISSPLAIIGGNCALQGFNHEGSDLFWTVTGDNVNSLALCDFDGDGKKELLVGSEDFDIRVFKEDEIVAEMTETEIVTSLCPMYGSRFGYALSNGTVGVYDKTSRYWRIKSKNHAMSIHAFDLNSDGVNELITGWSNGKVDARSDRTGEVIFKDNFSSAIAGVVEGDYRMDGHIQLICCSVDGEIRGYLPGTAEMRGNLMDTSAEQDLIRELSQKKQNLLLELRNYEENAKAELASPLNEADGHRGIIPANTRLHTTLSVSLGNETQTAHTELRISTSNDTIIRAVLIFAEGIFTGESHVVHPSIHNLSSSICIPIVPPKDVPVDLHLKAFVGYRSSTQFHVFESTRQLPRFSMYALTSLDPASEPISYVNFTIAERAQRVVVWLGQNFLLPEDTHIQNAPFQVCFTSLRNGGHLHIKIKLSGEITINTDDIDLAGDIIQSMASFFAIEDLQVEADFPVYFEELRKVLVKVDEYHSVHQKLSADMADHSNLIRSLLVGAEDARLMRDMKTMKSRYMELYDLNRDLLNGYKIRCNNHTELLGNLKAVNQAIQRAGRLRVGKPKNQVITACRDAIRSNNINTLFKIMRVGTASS

Variants of: B1
Conditions: with bbs2_human BBS2, Q9BXC9

| Variant | effect of a mutation on the interaction |
| --- | --- |
| Q621E | with no effect |
| P419E | with no effect |
| L642A | with no effect |
| E615K | with no effect |
| F527K | with no effect |
| S425K | with no effect |
| L457A | with no effect |
| N658A | with no effect |
| L618K | with no effect |
| K685E | with no effect |
| S507A | with no effect |
| K456E | with no effect |
| P537K | with no effect |
| V489A | with no effect |
| D686K | with no effect |
| V416E | with no effect |
| H581A | with no effect |
| H581P | disrupting interaction strength |
| F582K | with no effect |
| Q453K | with no effect |
| L481A | with no effect |
| R600A | with no effect |
| G579A | with no effect |
| I640K | with no effect |
| F673A | with no effect |
| F673K | disrupting interaction strength |
| Q602K | with no effect |

| Variant | effect of a mutation on the interaction |
| --- | --- |
| Q643E | with no effect |
| D573K | with no effect |
| D422A | with no effect |
| F474K | with no effect |
| K594A | with no effect |
| F624A | with no effect |
| F624E | with no effect |
| F624N | disrupting interaction strength |
| P497E | with no effect |
| F653K | with no effect |
| P556A | with no effect |
| T468A | with no effect |
| T613E | with no effect |
| V450K | with no effect |
| I657A | with no effect |
| K687A | with no effect |
| D513E | with no effect |
| S596K | with no effect |
| D572A | with no effect |
| D435K | with no effect |
| F684E | with no effect |
| V432A | with no effect |
| E607A | with no effect |
| I601E | with no effect |
| R449A | with no effect |
| Q524K | with no effect |
| I550E | with no effect |

| Variant | effect of a mutation on the interaction |
| --- | --- |
| N515A | with no effect |
| S635A | with no effect |
| S486A | with no effect |
| C469A | with no effect |
| P463E | with no effect |
| D517A | with no effect |
| V444K | with no effect |
| T549E | with no effect |
| F566A | with no effect |
| S418E | with no effect |
| S418K | with no effect |
| F563E | with no effect |
| L467A | with no effect |
| G433A | with no effect |
| Q569K | with no effect |
| L465K | with no effect |
| S494A | with no effect |
| S494E | with no effect |
| I649A | with no effect |
| I649K | with no effect |
| S637A | with no effect |
| V413A | with no effect |
| Q677K | with no effect |
| L680E | with no effect |
| I612K | with no effect |
| E625A | with no effect |
| E664A | with no effect |

| Variant | effect of a mutation on the interaction |
| --- | --- |
| L491K | with no effect |
| F580E | with no effect |
| G565A | with no effect |
| K547E | with no effect |
| K547A | with no effect |
| A427K | with no effect |
| S593E | with no effect |
| S593K | with no effect |
| P530L | disrupting interaction strength |
| L559A | with no effect |
| R514K | with no effect |
| D470K | with no effect |
| Q597A | with no effect |
| G659K | with no effect |
| F476E | with no effect |
| C535A | with no effect |
| V557K | with no effect |
| A633K | with no effect |
| I676A | with no effect |
| L665A | with no effect |
| S541A | with no effect |
| V417K | with no effect |
| V437K | with no effect |
| D409E | with no effect |

Now from value to variant:

| effect of a mutation on the interaction | Variant |
| --- | --- |
| with no effect | D859K |
| with no effect | S820K |
| with no effect | L851E |
| with no effect | S886A |
| with no effect | E753K |
| with no effect | S860A |
| with no effect | S860E |
| with no effect | P802K |
| with no effect | L819K |
| with no effect | K810E |
| with no effect | H811K |
| with no effect | G841A |
| with no effect | I846K |
| with no effect | D773E |
| with no effect | G718K |
| with no effect | V885A |
| with no effect | W741E |
| with no effect | L744E |
| with no effect | L720A |
| with no effect | E761K |
| with no effect | E770A |
| with no effect | I738E |
| with no effect | P834K |
| with no effect | A710K |
| with no effect | A710E |
| with no effect | L808K |

| effect of a mutation on the interaction | Variant |
| --- | --- |
| with no effect | S806K |
| with no effect | T782K |
| with no effect | D762A |
| with no effect | Q883K |
| with no effect | K821A |
| with no effect | E714K |
| with no effect | L766K |
| with no effect | N796E |
| with no effect | P847E |
| with no effect | G842E |
| with no effect | G842A |
| with no effect | A775E |
| disrupting interaction strength | V772A |
| with no effect | R868A |
| with no effect | G767E |
| with no effect | E873A |
| with no effect | L692A |
| with no effect | L740A |
| with no effect | C783A |
| with no effect | R876E |
| with no effect | G823E |
| with no effect | N800A |
| with no effect | Q742E |
| with no effect | I801A |
| with no effect | I801E |
| disrupting interaction strength | A833S |

| effect of a mutation on the interaction | Variant |
| --- | --- |
| with no effect | Q722A |
| with no effect | S855A |
| disrupting interaction strength | Q748K |
| disrupting interaction strength | Q748L |
| with no effect | D817E |
| disrupting interaction strength | A690F |
| disrupting interaction strength | A690E |
| disrupting interaction strength | H694Y |
| with no effect | H694K |
| disrupting interaction strength | P691L |
| with no effect | T844A |
| with no effect | E790K |
| with no effect | F756A |
| with no effect | Q705A |
| with no effect | S828A |
| with no effect | K743A |
| disrupting interaction strength | Q791L |
| with no effect | Q791A |
| with no effect | L882A |
| with no effect | E862K |
| with no effect | T836A |
| with no effect | L784K |
| with no effect | T731E |
| disrupting interaction strength | T697C |
